Measured values: PMC6888645, “Oligomerization Affects the Ability of Human Cyclase-Associated Proteins 1 and 2 to Promote Actin Severing by Cofilins” (International Journal of Molecular Sciences, 2019)

Tests used:
[1] = target: the molecule itself; test: AUC; sedimentation velocity (SV-AUC), 50 µM protein, 20 °C, 50,000 rpm, absorbance at 280 nm, 20 mM Tris-HCl pH 8.0, SEDFIT c(S) model; buffer (Tris-HCl vs PBS) and salt did not affect the oligomerization state
[2] = target: F-actin (skeletal muscle actin, polymerised) ( (rabbit or chicken skeletal …, UniProt P68135 1-377)); test: cell-based or functional assay

B1: N-CAP2, N-terminal fragment of human cyclase-associated protein 2 (original coiled coil and helical folded domain) (domain or fragment, UniProt P40123 1-220, looked up)
chain: MANMQGLVERLERAVSRLESLSAESHRPPGNCGEVNGVIAGVAPSVEAFDKLMDSMVAEFLKNSRILAGDVETHAEMVHSAFQAQRAFLLMASQYQQPHENDVAALLKPISEKIQEIQTFRERNRGSNMFNHLSAVSESIPALGWIAVSPKPGPYVKEMNDAATFYTNRVLKDYKHSDLRHVDWVKSYLNIWSELQAYIKEHHTTGLTWSKTGPVASTVS
notes: cyclase-associated protein 2 (CAP2), human; N-terminal coiled coil (a.a. 1-29) followed by the helical folded domain (HFD); Cloned in pET21b; 30-220, so this construct probably ends at 220 (surmised); also called CAP2 tetramer; not shown: 6xHis, C-terminal, kept
stoichiometry N [1]: 4

B2: N-CAP1, N-terminal fragment of human cyclase-associated protein 1 (original coiled coil and helical folded domain) (domain or fragment, UniProt Q01518 1-220, looked up)
chain: MADMQNLVERLERAVGRLEAVSHTSDMHRGYADSPSKAGAAPYVQAFDSLLAGPVAEYLKISKEIGGDVQKHAEMVHTGLKLERALLVTASQCQQPAENKLSDLLAPISEQIKEVITFREKNRGSKLFNHLSAVSESIQALGWVAMAPKPGPYVKEMNDAAMFYTNRVLKEYKDVDKKHVDWVKAYLSIWTELQAYIKEFHTTGLAWSKTGPVAKELSGL
notes: cyclase-associated protein 1 (CAP1), human; N-terminal coiled coil (a.a. 1-29) followed by the helical folded domain (HFD); Cloned in pET21b; also called CAP1 tetramer; not shown: 6xHis, C-terminal, kept
potentiation of F-actin severing by 50 nM CFL1 with 750 nM N-CAP construct, single filaments by TIRF microscopy, against CFL1 alone [2]: > 2.5 fold
stoichiometry N [1]: 4
